Consider two substances from doi:10.1101/2020.04.29.065136.

Experiment [1] concerns the target SNAP25 (mouse (endogenous in mouse brain synaptosomes)) (UniProt P60879). The experiment can be described thus: affinity purification with mass spectrometry.
The target is the same in experiment [2]. The experiment can be described thus: co-IP.

Chain of UniProt P60879 (P60879 whole entry): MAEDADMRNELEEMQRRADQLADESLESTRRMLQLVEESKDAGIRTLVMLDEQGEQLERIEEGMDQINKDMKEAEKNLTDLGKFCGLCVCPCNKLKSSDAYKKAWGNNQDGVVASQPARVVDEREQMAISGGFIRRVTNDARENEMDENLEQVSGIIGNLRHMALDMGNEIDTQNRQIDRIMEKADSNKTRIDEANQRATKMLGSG

Substance “Gβ1 (from UniProt P62874 1-340) (natural protein)” yielded a fold increase of the interaction upon epi stimulation against the basal state in experiment [1] of 10 fold.
Turning to “Gβγ (from UniProt P62874 1-340; P63216 1-75) (complex)”, in experiment [2], the amount pulled down with SNAP25 per half brain amounted to 1 µg.
